# In US20140237632A1 (UNIVERSITY OF CHICAGO, published 2014):
# Key:
# [1] = target: the molecule itself; experiment: self-association; FRET in spectra and nondenaturing SDS-PAGE
# [2] = target: the molecule itself; experiment: self-association; nondenaturing SDS-PAGE
# Description: FIG. 4. Decreasing the net charge near the N terminus of DsRed reduces aggregation of the protein. (A) Nondenaturing SDS-PAGE of purified DsRed1 (WT), the Round 1 variant (R1), the Round 3 variant (R3), the Round 4 variant (R4), DsRed.T1 (T1), DsRed.T3 (T3) and DsRed.T4 (T4). 1 μg of each purified DsRed variant was mixed with SDS-containing sample buffer on ice and immediately electrophoresed at 4° C. in a 10% poly-acrylamide gel, followed by staining with Coomassie Blue. WT* and T4*: Additional aliquots of DsRed1 and DsRed.T4 were denatured by boiling prior to electrophoresis. MW: broad range prestained protein standard (Bio-Rad). (B) To measure the solubilities of the fluorescent proteins in E. coli, cells carrying pREP4 plus pQE31-based expression vectors encoding DsRed1, DsRed2, the Round 3 variant, the Round 4 variant, or EGFP were grown to an OD₆₀₀ of 0.5, induced with IPTG for 7 h, then lysed with B-PER II and centrifuged for 20 min at 27,000×g. […] The bound antibody was detected using the ECL-Plus kit (Amersham) and a Molecular Dynamics Storm 860 phosphorimager. For each fluorescent protein, a dilution series from the bacterial extract was analyzed, and a sample within the linear range for the detection system was chosen. The percentage of each protein in the supernatant fraction was then quantified. […]
Protein,binding result [1],binding result [2]
"DsRed.T3 (other, Fluorescent protein variant, purified with a hexahistidine tag from E. coli; Entered only for its self-association (tetramer); not shown: N-terminal hexahistidine tag (pQE31) and polylinker upstream of the start codon, carrying P(-4)L) MASSEDVIKEFMRFKVRMEGSVNGHEFEIEGEGEGRPYEGTQTAKLKVTKGGPLPFAWDILSPQFQYGSKVYVKHPADIPDYKKLSFPEGFKWERVMNFEDGGVVTVTQDSSLQDGCFIYKVKFIGVNFPSDGPVMQKKTMGWEPSTERLYPRDGVLKGEIHKALKLKDGGHYLVEFKSIYMAKKPVQLPGYYYVDSKLDITSHNEDYTIVEQYERTEGRHHLFL",binds,
"DsRed.T4 (other, Fluorescent protein variant, purified with a hexahistidine tag from E. coli; Entered only for its self-association (tetramer); not shown: N-terminal hexahistidine tag (pQE31) and polylinker upstream of the start codon, carrying P(-4)L) MASSEDVIKEFMRFKVRMEGSVNGHEFEIEGEGEGRPYEGTQTAKLKVTKGGPLPFAWDILSPQFQYGSKVYVKHPADIPDYKKLSFPEGFKWERVMNFEDGGVVTVTQDSSLQDGCFIYKVKFIGVNFPSDGPVMQKKTMGWEPSTERLYPRDGVLKGEIHKALKLKDGGHYLVEFKSIYMAKKPVQLPGYYYVDSKLDITSHNEDYTIVEQYERAEGRHHLFL",binds,
"DsRed Round 4 variant (other, Round 3 variant plus R2A, K5E and N6D; also called R4; not shown: N-terminal hexahistidine tag (pQE31) and polylinker upstream of the start codon, carrying P(-4)L) MASSEDVIKEFMRFKVRMEGSVNGHEFEIEGEGEGRPYEGTQTAKLKVTKGGPLPFAWDILSPQFQYGSKVYVKHPADIPDYKKLSFPEGFKWERVMNFEDGGVVTVTQDSSLQDGCFIYKVKFIGVNFPSDGPVMQKKTMGWEASTERLYPRDGVLKGEIHKALKLKDGGHYLVEFKSIYMAKKPVQLPGYYYVDSKLDITSHNEDYTIVEQYERTEGRHHLFL",,binds
